Laboratory results: patent US20040175731, “Methods and products for treating staphylococcal infections” (The Brigham and Women's Hospital, Inc., published 2004)

Columns and labels:
IcaR [1] = target: T1, IcaR (Staphylococcus aureus, UniProt Q9RQQ0 SEQ:1-186); experiment: EMSA; no detectable difference from WT probe; conditions: tags: N-terminal His6 (pCRT7-NT); chain copies: 2; label: 32P
T1 sequence: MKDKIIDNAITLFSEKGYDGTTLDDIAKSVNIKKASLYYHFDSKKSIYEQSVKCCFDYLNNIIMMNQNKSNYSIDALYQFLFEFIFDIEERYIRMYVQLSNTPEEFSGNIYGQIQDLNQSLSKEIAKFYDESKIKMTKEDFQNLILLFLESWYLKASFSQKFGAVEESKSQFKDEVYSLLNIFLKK

TcaR [2] = target: T2, TcaR (Staphylococcus aureus, UniProt Q9F4G3 Q9F4G3:1-151); experiment: footprint; data not shown; protection much the same as WT; conditions: chain copies: 2; label: 32P
T2 sequence (Q9F4G3 whole entry, one chain of several): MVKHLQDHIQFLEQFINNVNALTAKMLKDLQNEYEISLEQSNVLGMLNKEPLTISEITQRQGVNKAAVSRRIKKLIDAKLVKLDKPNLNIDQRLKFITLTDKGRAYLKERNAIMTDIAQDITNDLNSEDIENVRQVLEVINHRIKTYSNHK

IcaR [3] = target: T1, IcaR; experiment: EMSA; on ice; competed by 100x specific competitor; conditions: tags: N-terminal His6 (pCRT7-NT); chain copies: 2; label: 32P
TcaR [4] = target: T2, TcaR; experiment: footprint; data not shown; multiple sites protected, specific and high affinity; conditions: chain copies: 2; label: 32P
IcaR [5] = target: T1, IcaR; experiment: EMSA; data not shown; conditions: tags: N-terminal His6 (pCRT7-NT); chain copies: 2; label: 32P
IcaR [6] = target: T1, IcaR; experiment: EMSA; recombinant IcaR failed to bind either short probe; conditions: tags: N-terminal His6 (pCRT7-NT); chain copies: 2; label: 32P

B1: 193-bp MUC ica promoter probe (dsDNA)
DNA 1: ATTGCGTTATCAATAATCTTATCCTTCAATTTTTATAACCCCCTACTGAAAATTAATCACACTATGTTACAGGAAAATTAAGTTGCAATTACAAACCGTTTAATTATAACAACAATCTATTGCAAATTAAAATACTATCAATTACCATATGGCTTACAACCTAACTAACGAAAGGTAGGTAAAGAAATTGCAA
DNA 2: TTGCAATTTCTTTACCTACCTTTCGTTAGTTAGGTTGTAAGCCATATGGTAATTGATAGTATTTTAATTTGCAATAGATTGTTGTTATAATTAAACGGTTTGTAATTGCAACTTAATTTTCCTGTAACATAGTGTGATTAATTTTCAGTAGGGGGTTATAAAAATTGAAGGATAAGATTATTGATAACGCAAT
Does B1 bind (IcaR [1])?
Result: binds

Does B1 bind (TcaR [2])?
Result: binds

B2: 198-bp WT ica promoter probe (dsDNA)
DNA 1: ATTGCGTTATCAATAATCTTATCCTTCAATTTTTATAACCCCCTACTGAAAATTAATCACACTATGTTACAGGAAAATTAAGTTGCAATTACAAATATTTCCGTTTAATTATAACAACAATCTATTGCAAATTAAAATACTATCAATTACCATATGGCTTACAACCTAACTAACGAAAGGTAGGTAAAGAAATTGCAA
DNA 2: TTGCAATTTCTTTACCTACCTTTCGTTAGTTAGGTTGTAAGCCATATGGTAATTGATAGTATTTTAATTTGCAATAGATTGTTGTTATAATTAAACGGAAATATTTGTAATTGCAACTTAATTTTCCTGTAACATAGTGTGATTAATTTTCAGTAGGGGGTTATAAAAATTGAAGGATAAGATTATTGATAACGCAAT
Does B2 bind (IcaR [3])?
Result: binds

Does B2 bind (TcaR [4])?
Result: binds

B3: WTshort 53-bp (dsDNA)
DNA 1: CTATGTTACAGGAAAATTAAGTTGCAATTACAAATATTTCCGTTTAATTATAA
DNA 2: TTATAATTAAACGGAAATATTTGTAATTGCAACTTAATTTTCCTGTAACATAG
Does B3 bind (IcaR [5])?
Result: no binding

B4: DEL/MUC 48-bp (dsDNA)
DNA 1: CTATGTTACAGGAAAATTAAGTTGCAATTACAAACCGTTTAATTATAA
DNA 2: TTATAATTAAACGGTTTGTAATTGCAACTTAATTTTCCTGTAACATAG
Does B4 bind (IcaR [6])?
Result: no binding
